Where two headings read alike, the source gives them in different places.

B1: FXR120-RXRα98 heterodimer (FXR_(120-486) with RXRα_(98-462)) (complex, human)
chain 1: KKPRMGASAGRIKGDELCVVCGDRASGYHYNALTCEGCKGFFRRSITKNAVYKCKNGGNCVMDMYMRRKCQECRLRKCKEMGMLAECMYTGLLTEIQCKSKRLRKNVKQHADQTVNEDSEGRDLRQVTSTTKSCREKTELTPDQQTLLHFIMDSYNKQRMPQEITNKILKEEFSAEENFLILTEMATNHVQVLVEFTKKLPGFQTLDHEDQIALLKGSAVEAMFLRSAEIFNKKLPSGHSDLLEERIRNSGISDEYITPMFSFYKSIGELKMTQEEYALLTAIVILSPDRQYIKDREAVEKLQEPLLDVLQKLCKIHQPENPQHFACLLGRLTELRTFNHHHAEMLMSWRVNDHKFTPLLCEIWDVQ
chain 2: MNPVSSSEDIKPPLGLNGVLKVPAHPSGNMASFTKHICAICGDRSSGKHYGVYSCEGCKGFFKRTVRKDLTYTCRDNKDCLIDKRQRNRCQYCRYQKCLAMGMKREAVQEERQRGKDRNENEVESTSSANEDMPVERILEAELAVEPKTETYVEANMGLNPSSPNDPVTNICQAADKQLFTLVEWAKRIPHFSELPLDDQVILLRAGWNELLIASFSHRSIAVKDGILLATGLHVHRNSAHSAGVGAIFDRVLTELVSKMRDMQMDKTELGCLRAIVLFNPDSKGLSNPAEVEALREKVYASLEAYCKHKYPEQPGRFAKLLLRLPALRSIGLKCLEHLFFFKLIGDTPIDTFLMEMLEAPHQMT
B2: SRC1_(630-987) (domain or fragment, human, UniProt Q15788 630-987, looked up)
chain: SHKLVQLLTTTAEQQLRHADIDTSCKDVLSCTGTSNSASANSSGGSCPSSHSSLTERHKILHRLLQEGSPSDITTLSVEPDKKDSASTSVSVTGQVQGNSSIKLELDASKKKESKDHQLLRYLLDKDEKDLRSTPNLSLDDVKVKVEKKEQMDPCNTNPTPMTKPTPEEIKLEAQSQFTADLDQFDQLLPTLEKAAQLPGLCETDRMDGAVTSVTIKSEILPASLQSATARPTSRLNRLPELELEAIDNQFGQPGTGDQIPWTNNTVTAINQSKSEDQCISSQLDELLCPPTTVEGRNDEKALLEQLVSFLSGKDETELAELDRALGIDKLVQGGGLDVLSERFPPQQATPPLIMEER
modifications: biotin (biotin-labelled in the BLI assays; site not stated)

The experiment “SRC1_(630-987)” has as its target B2. The experiment in a line: SEC-MALS. (In gel filtration, larger molecules generally elute earlier.)
Experiment [1] concerns the target SRC1_(630-987) M3 mutant (NR-box3 mutated) (human) (UniProt Q15788). The experiment in a line: BLI. On the technique in general: BLI is a label-free optical method that tracks binding on a fibre tip over time.
Experiment [2] concerns the target B1. The experiment in a line: BLI.
For experiment [3], the target named is B1. Put plainly: BLI. This is another data set of the same source.
For experiment [4], the target named is B1. Put plainly: BLI. This is another data set of the same source.

As for B1, the “stoichiometry N” value in the experiment with SRC1_(630-987) is 1. Besides, the fold reduction in affinity against wild type SRC1 (630-987) in experiment [1] was 2 fold.

For B2, the values for the Kd in experiment [2], in experiment [3] and in experiment [4] were 49 nM, 43.1 nM and 23.7 nM, respectively.

As a reminder, the stoichiometry N is the number of molecules, sites or subunits per partner or assembly. As a reminder, the Kd is the constant that tells how readily two partners part at equilibrium. Read a low Kd as tighter binding.

Source of the values: paper doi:10.1101/2024.05.13.593894 (bioRxiv, 2024).
